Laboratory results as given in the supplement of paper PMC10065799, “High-throughput profiling of sequence recognition by tyrosine kinases and SH2 domains using bacterial peptide display” (eLife, 2023).

Key:
SHP2-C SH2 = test: SH2 binding enrichment of the phosphorylated peptide, bacterial display (enrichment ratio); higher = better substrate or ligand; peptides without Tyr show the background
c-Src SH2 = test: as above
Grb2 SH2 = Grb2 SH2 (UniProt P62993); test: as above
Fes = Fes (UniProt P07332); test: phosphorylation enrichment, bacterial display (enrichment ratio); higher = better substrate or ligand; peptides without Tyr show the background
EPHB1 = EPHB1 (UniProt P54762); test: as above
EPHB2 = EPHB2 (UniProt P29323); test: as above
FGFR3 = FGFR3 (UniProt P22607); test: as above
Hck = Hck (UniProt P08631); test: as above
Fyn = Fyn (UniProt P06241); test: as above
AncSZ = test: as above
c-Src = test: as above
c-Abl (mouse) = test: as above
MERTK = MERTK (UniProt Q12866); test: as above
FGFR1 = FGFR1 (UniProt P11362); test: as above
Fer (mouse) = test: as above
Jak2 = Jak2 (UniProt O60674); test: as above
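Throughout, for SH2 binding enrichment of the phosphorylated peptide, bacterial display: peptide library displayed on the E. coli surface as eCPX fusions, selected cells deep-sequenced, score is each peptide's frequency after selection divided by its frequency in the input.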
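Throughout, for phosphorylation enrichment, bacterial display: 11-residue human phosphosite peptides and single-mutation variants displayed on the E. coli surface, counted by deep sequencing, each peptide's frequency after selection divided by its frequency in the unselected input library; frequency after pTyr selection over input frequency; kinase dosed for 20-30% of maximal phosphorylation in three min.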

Sequence of FGFR3 (P22607 whole entry, looked up): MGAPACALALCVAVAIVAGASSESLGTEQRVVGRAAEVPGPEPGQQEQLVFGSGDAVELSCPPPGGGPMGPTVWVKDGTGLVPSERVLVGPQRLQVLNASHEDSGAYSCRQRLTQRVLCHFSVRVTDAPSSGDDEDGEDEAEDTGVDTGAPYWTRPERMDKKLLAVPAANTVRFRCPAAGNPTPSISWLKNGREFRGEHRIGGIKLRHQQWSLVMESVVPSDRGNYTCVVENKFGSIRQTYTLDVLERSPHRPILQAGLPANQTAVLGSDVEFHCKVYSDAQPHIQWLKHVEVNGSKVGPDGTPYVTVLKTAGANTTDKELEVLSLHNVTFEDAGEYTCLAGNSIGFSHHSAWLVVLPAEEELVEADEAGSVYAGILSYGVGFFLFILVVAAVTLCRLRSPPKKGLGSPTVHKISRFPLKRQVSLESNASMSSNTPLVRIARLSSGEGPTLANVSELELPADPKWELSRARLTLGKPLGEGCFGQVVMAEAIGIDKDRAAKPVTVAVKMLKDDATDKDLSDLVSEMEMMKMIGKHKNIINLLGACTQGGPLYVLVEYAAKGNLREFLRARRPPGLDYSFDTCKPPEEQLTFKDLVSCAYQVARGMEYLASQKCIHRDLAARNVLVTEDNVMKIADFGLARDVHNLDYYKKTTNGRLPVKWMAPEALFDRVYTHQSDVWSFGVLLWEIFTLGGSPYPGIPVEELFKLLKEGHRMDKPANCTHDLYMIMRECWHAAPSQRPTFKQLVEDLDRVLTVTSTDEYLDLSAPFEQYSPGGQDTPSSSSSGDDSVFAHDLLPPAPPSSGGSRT
Sequence of Jak2 (O60674 whole entry, looked up, the tested form may be a part): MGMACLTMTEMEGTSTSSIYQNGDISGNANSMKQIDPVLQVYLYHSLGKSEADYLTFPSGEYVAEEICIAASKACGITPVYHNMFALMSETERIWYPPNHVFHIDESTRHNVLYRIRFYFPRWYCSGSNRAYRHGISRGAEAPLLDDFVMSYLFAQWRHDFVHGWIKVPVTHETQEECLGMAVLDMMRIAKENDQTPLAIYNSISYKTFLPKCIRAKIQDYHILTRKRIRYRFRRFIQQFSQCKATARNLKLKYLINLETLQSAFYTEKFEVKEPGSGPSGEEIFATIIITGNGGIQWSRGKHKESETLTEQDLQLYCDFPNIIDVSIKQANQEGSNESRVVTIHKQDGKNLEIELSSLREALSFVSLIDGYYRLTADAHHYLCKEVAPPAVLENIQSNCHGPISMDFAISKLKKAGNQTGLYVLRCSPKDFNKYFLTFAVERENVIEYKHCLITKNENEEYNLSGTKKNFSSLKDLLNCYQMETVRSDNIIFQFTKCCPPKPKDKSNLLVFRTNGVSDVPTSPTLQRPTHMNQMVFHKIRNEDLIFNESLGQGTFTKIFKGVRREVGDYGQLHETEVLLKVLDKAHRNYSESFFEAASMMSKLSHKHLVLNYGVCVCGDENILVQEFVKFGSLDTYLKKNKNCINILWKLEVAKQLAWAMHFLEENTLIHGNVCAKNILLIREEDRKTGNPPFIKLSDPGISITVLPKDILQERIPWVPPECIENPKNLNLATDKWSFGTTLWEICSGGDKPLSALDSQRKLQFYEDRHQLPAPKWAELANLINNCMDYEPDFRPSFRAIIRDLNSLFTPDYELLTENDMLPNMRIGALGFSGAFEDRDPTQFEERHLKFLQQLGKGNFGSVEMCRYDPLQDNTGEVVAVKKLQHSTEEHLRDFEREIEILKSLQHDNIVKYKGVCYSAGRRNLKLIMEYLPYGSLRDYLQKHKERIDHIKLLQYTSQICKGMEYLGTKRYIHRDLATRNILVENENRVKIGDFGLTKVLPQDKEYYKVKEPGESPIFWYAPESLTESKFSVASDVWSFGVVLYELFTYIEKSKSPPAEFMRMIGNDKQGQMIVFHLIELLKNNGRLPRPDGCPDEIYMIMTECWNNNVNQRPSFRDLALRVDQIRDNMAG
Sequence of Fyn (P06241 whole entry, looked up): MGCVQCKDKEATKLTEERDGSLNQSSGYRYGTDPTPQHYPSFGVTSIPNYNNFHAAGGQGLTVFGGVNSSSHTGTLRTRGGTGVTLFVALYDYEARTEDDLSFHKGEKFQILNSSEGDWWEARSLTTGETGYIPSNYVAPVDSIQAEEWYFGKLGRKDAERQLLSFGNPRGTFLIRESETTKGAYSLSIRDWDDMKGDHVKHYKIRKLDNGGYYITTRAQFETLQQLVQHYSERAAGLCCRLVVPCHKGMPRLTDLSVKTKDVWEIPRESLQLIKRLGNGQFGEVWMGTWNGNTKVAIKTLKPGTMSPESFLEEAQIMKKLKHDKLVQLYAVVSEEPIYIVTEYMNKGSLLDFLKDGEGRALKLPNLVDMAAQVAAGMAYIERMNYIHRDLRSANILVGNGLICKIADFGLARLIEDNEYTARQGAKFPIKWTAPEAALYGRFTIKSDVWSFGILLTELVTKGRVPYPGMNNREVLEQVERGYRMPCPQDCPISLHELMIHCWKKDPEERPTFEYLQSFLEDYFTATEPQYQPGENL
Sequence of MERTK (Q12866 whole entry, looked up): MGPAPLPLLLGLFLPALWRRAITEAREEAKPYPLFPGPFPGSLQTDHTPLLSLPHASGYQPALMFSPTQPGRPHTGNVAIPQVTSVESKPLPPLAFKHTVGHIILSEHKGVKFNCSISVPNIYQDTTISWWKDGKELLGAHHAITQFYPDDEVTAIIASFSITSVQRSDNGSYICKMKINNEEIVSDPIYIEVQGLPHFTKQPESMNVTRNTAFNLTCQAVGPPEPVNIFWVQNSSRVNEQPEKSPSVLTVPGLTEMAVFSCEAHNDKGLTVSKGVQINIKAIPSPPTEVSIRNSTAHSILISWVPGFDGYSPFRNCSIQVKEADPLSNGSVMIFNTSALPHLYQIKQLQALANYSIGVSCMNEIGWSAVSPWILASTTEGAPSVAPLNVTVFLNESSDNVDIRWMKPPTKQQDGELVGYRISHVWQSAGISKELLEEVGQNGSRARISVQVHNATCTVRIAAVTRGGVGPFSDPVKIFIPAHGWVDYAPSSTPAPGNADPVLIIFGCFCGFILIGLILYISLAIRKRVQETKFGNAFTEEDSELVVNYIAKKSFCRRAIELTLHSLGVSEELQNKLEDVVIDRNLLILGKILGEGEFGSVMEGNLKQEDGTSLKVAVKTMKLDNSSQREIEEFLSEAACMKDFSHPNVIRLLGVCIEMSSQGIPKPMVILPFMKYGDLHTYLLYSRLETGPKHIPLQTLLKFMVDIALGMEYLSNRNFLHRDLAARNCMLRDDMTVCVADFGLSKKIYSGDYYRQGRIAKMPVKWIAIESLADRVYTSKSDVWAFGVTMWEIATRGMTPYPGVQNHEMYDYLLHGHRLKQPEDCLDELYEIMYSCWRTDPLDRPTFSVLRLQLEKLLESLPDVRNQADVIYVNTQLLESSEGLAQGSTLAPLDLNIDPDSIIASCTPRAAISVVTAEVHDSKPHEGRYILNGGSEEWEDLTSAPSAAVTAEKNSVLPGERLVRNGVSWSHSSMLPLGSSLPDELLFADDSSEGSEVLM
Sequence of Fes (P07332 whole entry, looked up): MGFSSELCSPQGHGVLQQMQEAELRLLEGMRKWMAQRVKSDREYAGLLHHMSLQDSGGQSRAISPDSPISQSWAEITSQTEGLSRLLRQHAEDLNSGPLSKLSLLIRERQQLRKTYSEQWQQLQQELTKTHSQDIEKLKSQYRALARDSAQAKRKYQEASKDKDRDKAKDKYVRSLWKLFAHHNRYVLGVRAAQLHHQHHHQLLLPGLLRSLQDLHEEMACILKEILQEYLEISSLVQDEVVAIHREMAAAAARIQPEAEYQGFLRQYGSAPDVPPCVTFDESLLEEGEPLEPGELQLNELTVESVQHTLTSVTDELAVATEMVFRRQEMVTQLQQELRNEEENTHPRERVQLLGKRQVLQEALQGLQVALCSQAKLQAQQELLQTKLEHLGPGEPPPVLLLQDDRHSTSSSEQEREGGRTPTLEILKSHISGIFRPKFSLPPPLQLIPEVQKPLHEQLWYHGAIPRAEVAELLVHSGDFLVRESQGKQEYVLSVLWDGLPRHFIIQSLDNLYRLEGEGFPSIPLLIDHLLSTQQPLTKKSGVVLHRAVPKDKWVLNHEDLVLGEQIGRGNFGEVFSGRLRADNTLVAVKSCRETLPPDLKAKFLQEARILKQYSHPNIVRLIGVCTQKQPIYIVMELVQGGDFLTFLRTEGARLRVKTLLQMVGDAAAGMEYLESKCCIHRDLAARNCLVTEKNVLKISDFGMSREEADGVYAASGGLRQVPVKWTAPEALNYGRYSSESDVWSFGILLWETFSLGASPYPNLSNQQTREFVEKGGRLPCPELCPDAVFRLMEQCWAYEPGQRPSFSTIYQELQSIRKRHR
Sequence of Hck (P08631 whole entry, looked up): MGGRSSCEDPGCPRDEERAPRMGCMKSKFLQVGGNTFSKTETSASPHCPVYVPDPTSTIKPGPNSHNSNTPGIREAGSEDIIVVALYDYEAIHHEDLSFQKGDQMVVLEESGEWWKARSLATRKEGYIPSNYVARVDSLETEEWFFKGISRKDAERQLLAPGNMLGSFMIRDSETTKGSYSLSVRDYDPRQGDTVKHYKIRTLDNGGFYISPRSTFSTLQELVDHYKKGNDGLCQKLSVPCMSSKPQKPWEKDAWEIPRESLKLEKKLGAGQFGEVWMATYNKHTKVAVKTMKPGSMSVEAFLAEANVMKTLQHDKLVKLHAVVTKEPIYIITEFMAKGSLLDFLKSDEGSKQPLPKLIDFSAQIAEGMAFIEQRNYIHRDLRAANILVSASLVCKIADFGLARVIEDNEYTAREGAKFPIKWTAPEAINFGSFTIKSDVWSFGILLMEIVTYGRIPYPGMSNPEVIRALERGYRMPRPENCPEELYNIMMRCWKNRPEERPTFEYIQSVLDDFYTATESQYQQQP
Sequence of Grb2 SH2 (P62993 whole entry, looked up): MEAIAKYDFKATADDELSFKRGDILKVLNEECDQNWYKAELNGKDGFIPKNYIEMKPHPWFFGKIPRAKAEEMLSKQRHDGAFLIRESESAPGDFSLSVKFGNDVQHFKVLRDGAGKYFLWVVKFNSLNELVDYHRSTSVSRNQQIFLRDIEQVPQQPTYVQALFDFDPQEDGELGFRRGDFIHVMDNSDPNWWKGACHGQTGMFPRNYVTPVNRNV

Sequence	SH2 binding enrichment (SHP2-C SH2)	SH2 binding enrichment (c-Src SH2)	SH2 binding enrichment (Grb2 SH2)	phosphorylation enrichment (Fes)	phosphorylation enrichment (EPHB1)	phosphorylation enrichment (EPHB2)	phosphorylation enrichment (FGFR3)	phosphorylation enrichment (Hck)	phosphorylation enrichment (Fyn)	phosphorylation enrichment (AncSZ)	phosphorylation enrichment (c-Src)	phosphorylation enrichment (c-Abl (mouse))	phosphorylation enrichment (MERTK)	phosphorylation enrichment (FGFR1)	phosphorylation enrichment (Fer (mouse))	phosphorylation enrichment (Jak2)
KITVIYDGACQ [VWDE_Y1035]	0.486	0.479	0.697	1.28	0.599	0.664	0.778	0.711	0.51	1.1	0.721	0.837	0.437	0.438	0.574	1.14
KLFYIYTPGTT [SLC27A4_Y245_S247P]	1.15	0.471	0.798	1.17	0.666	0.584	0.899	0.527	0.404	1.25	0.58	0.784	1.66	0.753	0.594	1.43
KLIMECLPYGS [JAK2_Y931_Y931C]	0.606	0.451	0.767	0.998	0.564	0.649	0.766	0.512	0.513	0.907	0.424	0.738	0.489	0.542	0.448	0.886
KLKNAYEECLE [MYH7_Y1488_S1491C]	0.755	2.71	1.08	1.16	0.501	0.554	0.739	0.642	0.438	1.15	0.502	0.799	0.432	0.508	0.615	0.984
KLNNEHLELNF [MME_Y497_Y497H_YF]	0.542	0.419	0.783	0.921	0.514	0.466	0.662	0.464	0.453	0.88	0.454	0.805	0.405	0.462	0.423	0.813
KLRMEYLSLMH [NCKIPSD_Y660]	1.97	1.44	2.08	0.991	0.524	0.609	0.737	0.515	0.438	0.857	0.445	0.8	0.419	0.52	0.455	0.976
KLVQLYVVCTK [BTK_Y461_G462V]	1.01	0.482	0.881	1.16	0.809	0.523	0.785	0.528	0.416	1.3	0.486	0.928	0.45	0.565	0.584	1.2
KMLEKYKEQLN [TLK2_Y259_R262Q]	0.619	0.426	1.01	0.864	0.585	0.598	0.56	0.53	0.503	0.721	0.336	0.51	0.393	0.604	0.539	0.507
KNAEKYAEEDR [HSPA9_Y568]	0.819	0.624	0.992	1.1	0.506	0.506	0.709	0.571	0.528	1.08	0.411	0.674	0.444	0.47	0.499	0.822
KNCFKYFMSDD [ATRX_Y203_YF]	0.529	0.546	0.803	1.45	0.639	0.714	0.84	0.556	0.453	1.37	0.646	1.02	0.556	0.604	0.589	1.27
KNEIFYQCPDQ [FBXO3_Y223_V221I]	0.676	0.746	0.774	1.36	0.688	1.07	1.02	0.998	0.748	2.23	0.744	6.62	2.55	0.928	4.5	1.07
KPLMPSMRFSR [SMARCE1_Y73_Y73S_YF]	0.675	0.569	0.831	0.876	0.392	0.399	0.463	0.413	0.424	0.828	0.543	0.737	0.459	0.396	0.35	0.685
KPSLKYVTFGN [GALNTL5_Y404_G401S_YF]	0.697	0.575	0.68	0.75	0.453	0.453	0.569	0.488	0.515	0.736	0.504	0.467	0.435	0.396	0.461	0.496
KQCSDYARELE [MYH3_Y1140_R1137C]	0.704	0.619	1.02	1.26	0.597	0.605	0.769	0.571	0.552	1.23	0.514	0.929	0.557	0.654	0.578	1.19
KQQEIYQEVTQ [CD209_Y239_L242V]	0.785	0.513	0.929	0.942	7.2	4.5	1.96	5.41	5.17	1.26	5.15	1.94	4.06	2.56	7.32	0.765
KRAAIYNPVIY [RHO_Y301_S297R]	0.645	0.629	0.968	0.556	0.398	0.415	0.443	4.27	2.33	0.547	2.67	0.469	1.06	0.577	5.24	0.424
